From patent publication US20180246080A1, “METHODS USING AXL AS A BIOMARKER OF EPITHELIAL-TO-MESENCHYMAL TRANSITION” (BERGEN TEKNOLOGIOVERFORING AS, priority 2009, published 2018)

B1: shAxl279: ineffective human Axl-targeting shRNA, SEQ ID NO: 3, used as control (nucleic acid, listed as Homo sapiens)
chain: GCTTCAGGCGATTTCCCCGGCGTTGGATCCCTGGTCGGATCCAACGCCGGGGAAATCGCCTGAAGC
B2: shAxl2: human Axl-targeting shRNA, SEQ ID NO: 1, expressed from retroviral vector (nucleic acid, listed as Homo sapiens)
chain: GACATCCTCTTTCTCCTGCGAAGCCCATCTGGTCATGGGCTTCGCAGGAGAAAGAGGATGTC

Assays:
mouse Axl = assay: Flow cytometry of mouse Axl surface expression in 4T1-GFP-Luc cells; format: cell-based; conditions: 4T1 cells, retroviral shRNA expression
Description: (§1) The MDA-MB-231 cells were trypsinated using standard procedures and washed in PBS-0.2% BSA before staining with anti-Axl (#MAB154, R&D Systems) at a final concentration of […] in PBS-0.2% BSA for 40 minutes at room temperature. Cells were washed twice in PBS-0.2% BSA) and incubated with secondary antibody (Goat anti-mouse APC (Allophyocyanin, crosslinked, Molecular Probes) at a final concentration of 0.2 mg/ml for 30 minutes at room temperature in the dark. Cells were washed twice with PBS-2% BSA and resuspended in […] PBS-0.2% BSA before analysis on a FacsCalibur Flow Cytometer (BD Biosciences). Data analyses were carried out using the FlowJo software (Tree Star, Inc., Ashland, Oreg., USA).
In order to validate our results in a different metastatic model we transduced the highly metastatic mouse breast carcinoma 4T1 cell line with the CSI-construct and selected for GFPluciferase expression by FACS (4T1-GFP-Luc). […] A mismatched human Axl-targeting shRNA (shAxl279) had no effect on mouse Axl expression.

Axl = assay: FACS analysis of Axl expression in epi-allelic MDA-MB-231 cell series; format: cell-based, human; conditions: MDA-MB-231/GFP-Luc cells
Text: All shRNAs were expressed from a modified human U6 promoter in the LTR of the retroviral vectors RRI-Red/L087 (Genbank: EU424173) used to transform MDA-MB-231 cells via retroviral infection. RRI-Red also expresses Puro2AmRed1 resulting in puromycin resistance and red fluorescence in successfully transformed cells. All Axl cDNA nucleotides are numbered as in Genbank: BC032229.
as §1, with “Data analyses were carried out using the FlowJo software (Tree Star, Inc., Ashland, Oreg., USA).” left out
The strong correlation of Axl expression in early breast carcinomas with poor survival indicates an important role for Axl in overall disease pathogenesis. As breast cancer-related mortality invariably results from complications of metastatic disease, we assessed whether Axl expression was required for malignant breast carcinoma cell invasiveness. […]

MDA-MB-231-D3H2LN cells = assay: Mammary fat pad spontaneous metastasis model, bioluminescence imaging; format: in vivo, NOD-SCID mice
Description: BLI was performed using a eXplore Optix (GE Healtcare) camera mounted in a specimen box. Imaging and quantification of signals was done using eXplore Optix software. For in vivo imaging, animals received via intraperitoneal injection (i.p) the substrate D-luciferin (Biosynth), 150 mg/kg in PBS (Phosphate Buffered Saline) and anesthetized with isoflurane. Mice were placed into warmed stage inside of camera box with continuous exposure to 1-2% isoflurane and imaged for different views depending on the tumor model. Region of interest were identified and were quantified as total photon/sec-1 using eXplore Optix software (GE Explore Optix). In vivo background bioluminescence was in the range of 2-3×10 photon counts. […]
Subline of human MDA-MB-231 cells (called MDA-MB 231 DH3L2N—Xenogen) which express GFP-Luc biomarker and different RNAs interference that regulate Axl expression were injected into mammary pad of mice. […] Tumor growth and metastasis spread was monitored every second week by bioluminescent imaging for up to 9 weeks. […]
In order to evaluate the requirement of Axl for breast cancer metastasis, we orthotopically injected MDA-MB-231-D3H2LN, a rapidly growing and highly metastatic in vivo MDA-231 isolate, into the mammary fat pad. Using whole body bioluminescent imaging we temporally monitored spontaneous metastasis development over a 9-week period. […]

MDA-MB-231/GFP-Luc cells = assay: Tissue engineered tricellular tumor implants (MDA-MB-231, EC, SMC) in scaffolds; format: in vivo, NOD-SCID mice
Text: 1×10^6 MDA-MB 231 cells which express GFP-Luc biomarker and different RNAs interference that regulate Axl expression, were suspended in a 1:1 mixture of F-12 Kaighn's (Invitrogen) :Matrigel (BD Biosciences) and seeded in 6×6 mm Poly-lactic acid (PLLA) scaffolds.
Females NOD/SCID/B2mnull were anesthetized by exposure to 1-2% isoflurane (Isoba vet.-Schering-Plough A/S) during the implantation procedure and on subsequent imaging days. Two scaffolds were implanted subcutaneously (s.c) in each mouse according to Nor et al. Lab Invest.; 81 (4) 453; 2001 Scaffolds with cells that express Axl were implanted on the left side of each mouse while on the right side scaffolds with cells in which Axl was knockdown. After the surgical procedure, anesthetized mice were placed in Imaging System and imaged for both left and right sides 10-15 min after intraperitoneal injection of 150 mg/kg D-luciferin (Biosynth). Tumor development was monitored in vivo once a week by imaging for 4 weeks.
For tricellular implant MDA-MB-231 cells infected with shRNA vectors and GFP-Luc were mixed with Human dermal microvascular endothelial cells (HMVEC), and pulmonary artery smooth muscle cells (PASMC) in ratio of 1:2:2. Tumor growth was monitored weekly in vivo by imaging for 4 consecutive weeks.
To ascertain whether Axl influences the ability of breast cancer cells to attract and co-opt blood vessels, we developed a tri-cellular implant approach comprising MB-MDA-231 cells seeded together with primary human microvascular endothelial (HuMVEC) and vascular smooth muscle cells (vSMC) to create tumor vasculature. Implants of human EC-vSMC cells readily form perfused intrascaffold human microvasculature in NOD-SCID mice within a two-week period (Hegen et al., in preparation). […] The engineered human tumor vasculature is evenly distributed and perfused with intralumenal red blood cells. In contrast, Axl knockdown, blocked tumor formation, without affecting development of a perfused human microvasculature.

Row | Molecule | mouse Axl surface levels (mouse Axl) | Axl knockdown efficacy (Axl-targeting shRNA) (Axl) | Overall survival (MDA-MB-231-D3H2LN cells; orthotopically injected MDA-MB-231-D3H2LN/GFP-Luc cells, P=0.013 log-rank test vs control) | Spontaneous metastasis (MDA-MB-231-D3H2LN cells; whole body bioluminescent imaging over 9 weeks) | Intrascaffold vessel diameter (MDA-MB-231/GFP-Luc cells; excised tumors, 28 days) | Microvascular density (MDA-MB-231/GFP-Luc cells; excised tumors, 28 days) | Tissue engineered tumor growth (MDA-MB-231/GFP-Luc cells; tricellular implants, in vivo imaging)
1 | B1 | had no effect | ineffective | – | – | – | – | –
2 | B2 | – | – | significantly increased | no metastases were detected | unaffected | slightly enhanced | inhibited
